# Source: patent US20240270821A1, “GIP/GLP1/GCG TRI-RECEPTOR AGONISTS AND USES THEREOF” (priority 2023, published 2024)
# T1: human GIP receptor (human) (UniProt P48546)
# T1 sequence (looked up): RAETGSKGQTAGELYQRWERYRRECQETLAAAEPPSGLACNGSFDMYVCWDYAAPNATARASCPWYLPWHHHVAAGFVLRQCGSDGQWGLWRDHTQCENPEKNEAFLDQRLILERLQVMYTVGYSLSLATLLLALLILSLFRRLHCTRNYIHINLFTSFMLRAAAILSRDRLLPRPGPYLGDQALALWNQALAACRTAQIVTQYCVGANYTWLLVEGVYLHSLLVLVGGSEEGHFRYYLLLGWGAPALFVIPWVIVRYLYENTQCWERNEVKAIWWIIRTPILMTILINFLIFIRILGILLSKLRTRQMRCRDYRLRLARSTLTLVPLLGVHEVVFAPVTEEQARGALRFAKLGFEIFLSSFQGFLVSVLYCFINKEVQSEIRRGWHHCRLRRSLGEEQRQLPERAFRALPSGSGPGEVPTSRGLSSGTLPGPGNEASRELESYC
# What was measured:
# Assay in all cases: cell-based or functional assay
# [1] = biological target: T1, human GIP receptor (human)
# [2] = biological target: human glucagon receptor (human) (UniProt P47871)
# hGLP-1R = hGLP-1R (Homo sapiens, UniProt P43220)
# hGLP-1R, sequence (P43220 24-463): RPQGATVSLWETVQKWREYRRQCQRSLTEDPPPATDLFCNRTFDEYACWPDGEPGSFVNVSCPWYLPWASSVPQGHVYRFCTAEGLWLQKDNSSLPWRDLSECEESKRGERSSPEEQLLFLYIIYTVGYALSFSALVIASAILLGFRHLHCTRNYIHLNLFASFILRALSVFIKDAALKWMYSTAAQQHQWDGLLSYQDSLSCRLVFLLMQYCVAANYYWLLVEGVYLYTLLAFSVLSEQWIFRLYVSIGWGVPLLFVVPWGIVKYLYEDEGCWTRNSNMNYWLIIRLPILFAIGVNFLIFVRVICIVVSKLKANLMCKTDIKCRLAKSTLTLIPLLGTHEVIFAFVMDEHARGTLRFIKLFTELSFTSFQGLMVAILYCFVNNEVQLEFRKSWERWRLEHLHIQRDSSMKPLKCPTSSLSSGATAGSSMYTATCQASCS
# human glucagon receptor (human), sequence (P47871 26-477): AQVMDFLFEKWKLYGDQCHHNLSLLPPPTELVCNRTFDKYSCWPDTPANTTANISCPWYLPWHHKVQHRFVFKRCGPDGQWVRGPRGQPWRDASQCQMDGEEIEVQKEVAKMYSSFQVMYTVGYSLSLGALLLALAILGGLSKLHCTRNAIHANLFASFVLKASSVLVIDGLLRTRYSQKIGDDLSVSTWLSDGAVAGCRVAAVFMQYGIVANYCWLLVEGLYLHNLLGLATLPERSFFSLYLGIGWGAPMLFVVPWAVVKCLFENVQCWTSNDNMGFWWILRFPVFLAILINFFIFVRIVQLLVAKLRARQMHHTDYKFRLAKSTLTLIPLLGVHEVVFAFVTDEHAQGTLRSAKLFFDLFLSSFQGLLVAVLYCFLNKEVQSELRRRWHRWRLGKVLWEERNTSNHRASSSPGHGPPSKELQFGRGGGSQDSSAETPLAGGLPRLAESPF
Binder,"cAMP Rel EC50, nM (1% HSA) [1] [nM]","cAMP Rel EC50, nM (1% HSA) [2] [nM]","cAMP Rel EC50, nM (1% HSA) (hGLP-1R) [nM]",Relative cAMP EC50 [1] [nM],Relative cAMP EC50 [2] [nM],Relative cAMP EC50 (hGLP-1R) [nM],"cAMP Rel EC50, nM (in the presence of 1% HSA) [1] [nM]","cAMP Rel EC50, nM (in the presence of 1% HSA) [2] [nM]","cAMP Rel EC50, nM (in the presence of 1% HSA) (hGLP-1R) [nM]"
YXQGTFTSDXSXXLDXKAQXEFIEYLLAGGPSSGAPPPSGSEE ((γGlu)2-C18 diacid on Lys; non-natural residues; amide; synthetic construct; SITE 2: note = 2-Aminoisobutyric Acid; SITE 10: note = 3-(4-Pyridyl)-L-alanine; SITE 12: note = L-ornithine; SITE 13: note = alpha-methyl-leucine; SITE 16: note = L-ornithine; SITE 17: note = Lysine is chemically modified through conjugation of the epsilon-amino group of the Lys) [Example 1003],15.9,371,1950,–,–,–,–,–,–
"YXQGTFTSDXSQXLDXKAQXEFIEXLLAGGPSSGAPPPSGSEE (Aib, 4Pal, αMeL, Orn, Me4Pal, αMeY; γGlu2-C18 diacid Lys; amide; synthetic construct; SITE 2: note = 2-Aminoisobutyric Acid; SITE 10: note = 3-(4-Pyridyl)-L-alanine; SITE 13: note = alpha-methyl-leucine; SITE 16: note = L-ornithine; SITE 17: note = Lysine is chemically modified through conjugation of the epsilon-amino group of the Lysine side chain with (gamma-Gl)) [Example 999]",10.4,2130,3020,–,–,–,–,–,–
YXQGTFTSDXSXXLDXKAQXEFIEXLLAGGPSSGAPPPSGSEE (acylated lysine (γ-Glu)2 C18 diacid; non-natural residues; C-terminal amide; synthetic construct; SITE 2: note = 2-Aminoisobutyric Acid; SITE 10: note = 3-(4-Pyridyl)-L-alanine; SITE 12: note = L-ornithine; SITE 13: note = alpha-methyl-leucine; SITE 16: note = L-ornithine; SITE 17: note = Lysine is chemically modified through conjugation of the epsilon-amino group of the Lys) [Example 996],11.2,1160,4810,–,–,–,–,–,–
"YXQGTFTSDXSXXLDXKAQXQFIEXLLAGGPSSGAPPPSGSEE (non-natural residues, (γGlu)2-diacid acylated Lys, C-terminal amide; synthetic construct; SITE 2: note = 2-Aminoisobutyric Acid; SITE 10: note = 3-(4-Pyridyl)-L-alanine; SITE 12: note = L-ornithine; SITE 13: note = alpha-methyl-leucine; SITE 16: note = L-ornithine; SITE 17: note = Lysine is chemically modified through conjugation of the epsilon-amino group of the Lys) [Example 995]",6.12,295,1660,–,–,–,–,–,–
"YXQGTFTSDXSXXLDKKAQXAFIEXLIEXGPSSGEPPPSGS (Aib, 4Pal, Orn, αMeL, Me4Pal, acylated K, C-terminal amide; synthetic construct; SITE 2: note = 2-Aminoisobutyric Acid; SITE 10: note = 3-(4-Pyridyl)-L-alanine; SITE 12: note = L-ornithine; SITE 13: note = alpha-methyl-leucine; SITE 17: note = Lysine is chemically modified through conjugation of the epsilon-amino group of the Lysine side chain with (2-[2-(2-) [Example 987]",11.7,267,515,0.194,3.62,6.33,–,–,–
"YXQGTFTSDXSXXLDKKAQXAFIEXLIAGGPSSGEPPPSGS (Aib, 4Pal, Orn, αMeL, Me4Pal, αMeY; γGlu2-C18 diacid Lys; amide; synthetic construct; SITE 2: note = 2-Aminoisobutyric Acid; SITE 10: note = 3-(4-Pyridyl)-L-alanine; SITE 12: note = L-ornithine; SITE 13: note = alpha-methyl-leucine; SITE 17: note = Lysine is chemically modified through conjugation of the epsilon-amino group of the Lysine side chain with (gamma-Gl)) [Example 1014]",5.62,277,86.4,0.0412,3.62,0.718,–,–,–
"YXQGTFTSDXSXXLDXKAQXAFIEXLIEGGPSSGAPPPSGS (Aib, 4Pal, Orn, αMeL, Me4Pal, αMeY, (γGlu)2-C18 diacid, amide; synthetic construct; SITE 2: note = 2-Aminoisobutyric Acid; SITE 10: note = 3-(4-Pyridyl)-L-alanine; SITE 12: note = L-ornithine; SITE 13: note = alpha-methyl-leucine; SITE 16: note = L-ornithine; SITE 17: note = Lysine is chemically modified through conjugation of the epsilon-amino group of the Lys) [Example 1013]",22.6,285,137,–,–,–,–,–,–
"YXQGTFTSDXSXXLDXKAQXAFIEXLIEXGPSSGEPPPSGS (Aib, 4Pal, Orn, Me4Pal, lipidated Lys, C-terminal amide; synthetic construct; SITE 2: note = 2-Aminoisobutyric Acid; SITE 10: note = 3-(4-Pyridyl)-L-alanine; SITE 12: note = L-ornithine; SITE 13: note = alpha-methyl-leucine; SITE 16: note = L-ornithine; SITE 17: note = Lysine is chemically modified through conjugation of the epsilon-amino group of the Lys) [Example 991]",14.8,405,315,0.119,3.03,3.91,–,–,–
"YXQGTFTSDXSQXLDXKAQXAFIEYLIEAGPSSGAPPPSGS (not fully specified; Aib, 4Pal, αMeL, Orn, Me4Pal, D-Ala; acylated Lys; amide; synthetic construct; SITE 2: note = 2-Aminoisobutyric Acid; SITE 10: note = 3-(4-Pyridyl)-L-alanine; SITE 13: note = alpha-methyl-leucine; SITE 16: note = L-ornithine; SITE 17: note = Lysine is chemically modified through conjugation of the epsilon-amino group of the Lysine side chain with (gamma-Gl)) [Example 1017]",28.3,649,118,–,–,–,–,–,–
YXQGTFTSDXSXXLDKKAQXAFIEXLIEXGPSSGEPPPSGS (Lys acylated (γ-Glu)2-C18 diacid; non-natural residues; C-terminal amide; synthetic construct; SITE 2: note = 2-Aminoisobutyric Acid; SITE 10: note = 3-(4-Pyridyl)-L-alanine; SITE 12: note = L-ornithine; SITE 13: note = alpha-methyl-leucine; SITE 17: note = Lysine is chemically modified through conjugation of the epsilon-amino group of the Lysine side chain with (gamma-Gl)) [Example 989],8,247,402,0.103,2.27,3.92,–,–,–
YXQGTFTSDXSQXLDXKAQXAFIEYLIAGGPSSGEPPPSGS (non-natural residues; lipidated Lys; C-terminal amide; synthetic construct; SITE 2: note = 2-Aminoisobutyric Acid; SITE 10: note = 3-(4-Pyridyl)-L-alanine; SITE 13: note = alpha-methyl-leucine; SITE 16: note = L-ornithine; SITE 17: note = Lysine is chemically modified through conjugation of the epsilon-amino group of the Lysine side chain with (gamma-Gl)) [Example 1007],12,636,95.1,0.116,5.34,0.668,–,–,–
"YXQGTFTSDXSXXLDKKAQXAFIEXLIAGGPSSGAPPPEGS (non-natural residues (Aib, 4Pal, Orn, Me4Pal, αMeY); lipidated K; amide; synthetic construct; SITE 2: note = 2-Aminoisobutyric Acid; SITE 10: note = 3-(4-Pyridyl)-L-alanine; SITE 12: note = L-ornithine; SITE 13: note = alpha-methyl-leucine; SITE 17: note = Lysine is chemically modified through conjugation of the epsilon-amino group of the Lysine side chain with (gamma-Gl)) [Example 1015]",9.08,357,92.4,–,–,–,–,–,–
"YXQGTFTSDXSQXLDXKAQXAFIEYLIEAGPSSGAPPPSGS (not fully specified; Aib, 4Pal, αMeL, Orn, Me4Pal, D-Ala; acylated Lys; C-terminal amide; synthetic construct; SITE 2: note = 2-Aminoisobutyric Acid; SITE 10: note = 3-(4-Pyridyl)-L-alanine; SITE 13: note = alpha-methyl-leucine; SITE 16: note = L-ornithine; SITE 17: note = Lysine is chemically modified through conjugation of the epsilon-amino group of the Lysine side chain with (2-[2-(2-) [Example 1016]",30.6,626,156,–,–,–,–,–,–
"YXQGTFTSDXSXXLDXKAQXAFIEYLIAGGPSSGAPPPSESE (Aib, 4Pal, Orn, αMeL, Me4Pal; K (γGlu)2-C18 diacid; amide; synthetic construct; SITE 2: note = 2-Aminoisobutyric Acid; SITE 10: note = 3-(4-Pyridyl)-L-alanine; SITE 12: note = L-ornithine; SITE 13: note = alpha-methyl-leucine; SITE 16: note = L-ornithine; SITE 17: note = Lysine is chemically modified through conjugation of the epsilon-amino group of the Lys) [Example 1012]",15.9,533,223,–,–,–,–,–,–
YXQGTFTSDXSQXLDXKAQXAFIEYLIAGGPSSGEPPPSGTEEE (non-natural residues; acylated Lys; C-terminal amide; synthetic construct; SITE 2: note = 2-Aminoisobutyric Acid; SITE 10: note = 3-(4-Pyridyl)-L-alanine; SITE 13: note = alpha-methyl-leucine; SITE 16: note = L-ornithine; SITE 17: note = Lysine is chemically modified through conjugation of the epsilon-amino group of the Lysine side chain with (gamma-Gl)) [Example 986],31.3,702,380,0.299,4.94,3.06,–,–,–
YXQGTFTSDFSXXLDKKAQXQFIEYLLAGGPSSGAPPPEGS (synthetic construct; SITE 2: note = 2-Aminoisobutyric Acid; SITE 12: note = L-ornithine; SITE 13: note = alpha-methyl-leucine; SITE 17: note = Lysine is chemically modified through conjugation of the epsilon-amino group of the Lysine side chain with (2-[2-(2-Amino-ethoxy)-ethoxy]-acetyl)-(gamma-Glu)) [Example 96],–,–,–,0.456,14.1,3.92,49.3,2150,836
